The values that follow come from PMC9528458 (Science signaling, 2022).

The target in experiment [1] is T1, mouse Fzd4 (residues 41-537), monomeric, in lipid nanodiscs (mouse, UniProt Q61088 41-537).
T1 sequence (looked up): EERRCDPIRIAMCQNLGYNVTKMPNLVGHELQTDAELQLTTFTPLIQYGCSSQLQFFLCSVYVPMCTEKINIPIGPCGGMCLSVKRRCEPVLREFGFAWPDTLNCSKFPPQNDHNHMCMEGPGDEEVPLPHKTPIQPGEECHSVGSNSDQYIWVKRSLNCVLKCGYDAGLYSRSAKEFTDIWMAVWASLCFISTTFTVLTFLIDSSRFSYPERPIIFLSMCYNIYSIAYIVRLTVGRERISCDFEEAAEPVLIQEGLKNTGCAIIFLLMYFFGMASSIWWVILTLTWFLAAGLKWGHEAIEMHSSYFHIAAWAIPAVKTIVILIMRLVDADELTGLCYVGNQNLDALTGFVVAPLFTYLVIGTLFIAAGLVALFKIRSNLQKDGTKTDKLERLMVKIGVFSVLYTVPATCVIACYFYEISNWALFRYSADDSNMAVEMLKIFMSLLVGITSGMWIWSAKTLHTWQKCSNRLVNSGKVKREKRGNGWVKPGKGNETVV
Put plainly: BLI.

The target of experiment [2] is T1, mouse Fzd4 (residues 41-537), …. Briefly: BLI. The source holds these as a separate data set. On the technique in general: BLI is a label-free optical method that tracks binding on a fibre tip over time.
For experiment [3] the target is unchanged. Put plainly: BLI. The source holds these as a separate data set.
Experiment [4] deals with human FZD7 (residues 33-574), in lipid nanodiscs (human, UniProt O75084 33-574). Briefly: BLI.
The target of experiment [5] is T2, human FZD5 (residues 27-585), in lipid nanodiscs (human, UniProt Q13467 27-585). Briefly: BLI.
T2 sequence (Q13467 27-585): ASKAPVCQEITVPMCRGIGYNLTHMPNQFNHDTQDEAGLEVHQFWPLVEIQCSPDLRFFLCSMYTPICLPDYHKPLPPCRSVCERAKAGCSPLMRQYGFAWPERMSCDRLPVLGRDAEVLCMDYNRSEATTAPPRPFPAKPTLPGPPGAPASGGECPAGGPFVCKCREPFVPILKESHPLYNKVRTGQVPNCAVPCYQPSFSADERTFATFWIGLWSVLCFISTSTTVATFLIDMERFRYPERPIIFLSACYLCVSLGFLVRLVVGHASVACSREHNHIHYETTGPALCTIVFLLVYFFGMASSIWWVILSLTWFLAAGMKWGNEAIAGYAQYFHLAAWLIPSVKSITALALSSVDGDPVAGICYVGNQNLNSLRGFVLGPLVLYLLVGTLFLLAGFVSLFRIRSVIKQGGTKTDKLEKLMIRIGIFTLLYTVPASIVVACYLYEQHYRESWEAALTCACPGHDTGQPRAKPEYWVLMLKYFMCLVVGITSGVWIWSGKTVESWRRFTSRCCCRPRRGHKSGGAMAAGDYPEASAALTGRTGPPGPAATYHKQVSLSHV
Experiment [6] deals with pre-formed xWnt8-FZD5 complex in nanodiscs (human | Xenopus laevis, UniProt Q13467 27-585; P28026 23-358). Briefly: BLI.
pre-formed xWnt8-FZD5 complex in nanodiscs, sequence (Q13467 27-585, one chain of several): as the sequence (Q13467 27-585) above
The target in experiment [7] is T1, mouse Fzd4 (residues 41-537), …. Briefly: BLI. This is another data set of the same source.
The target is the same in experiment [8]. Briefly: BLI. This is another data set of the same source.
The target is the same in experiment [9]. Put plainly: BLI. The source holds these as a separate data set.
Experiment [10] shares this target. Briefly: SEC. A general note: Size exclusion chromatography separates by hydrodynamic size, large species first.
In experiment [11] the target is T2, human FZD5 (residues 27-585), in lipid …. Put plainly: SEC.

Positions count from the first letter of the chain named. Names and notes keep the numbering of the source. Read-outs that look alike come from different tables or passages of the source. Some results are limits rather than exact numbers.

B1: DEP domain of mouse Dvl2 (residues 416-510) (domain or fragment, UniProt Q60838 416-510, looked up)
chain: GLSVHMDMASVTKAMAAPESGLEVRDRMWLKITIPNAFLGSDVVDWLYHHVEGFPERREARKYASGLLKAGLIRHTVNKITFSEQCYYVFGDLSG
Take B1: the Kd (in general, a measure of binding affinity in units of concentration) in experiment [1] is approximately 2000 nM; in [2], approximately 40 nM; in experiment [3] it was more than 10000 nM; in experiment [7], 1200 nM. The binding result in experiment [4], in experiment [5] and in experiment [6] was “binds” throughout.

B2: DEP domain of mouse Dvl2 bearing a G436P mutation (domain or fragment, UniProt Q60838 416-510, looked up)
chain: B1 chain with G21P
Consider B2, for which the binding result in [8] is on record as “binds”.

B3: human Norrin (ligand, UniProt Q00604 25-133, looked up)
chain: KTDSSFIMDSDPRRCMRHHYVDSISHPLYKCSSKMVLLARCEGHCSQASRSEPLVSFSTVLKQPFRSSCHCCRPQTSKLKALRLRCSGGMRLTATYRYILSCHCEECNS
In the case of B3, the binding result in experiment [9] is “binds”.

B4: Xenopus laevis Wnt8 (ligand, UniProt P28026 23-358, looked up)
chain: AWSVNNFLMTGPKAYLTYSASVAVGAQNGIEECKYQFAWERWNCPESTLQLATHNGLRSATRETSFVHAISSAGVMYTLTRNCSMGDFDNCGCDDSRNGRIGGRGWVWGGCSDNAEFGERISKLFVDGLETGQDARALMNLHNNEAGRLAVKETMKRTCKCHGISGSCSIQTCWLQLAEFRDIGNHLKIKHDQALKLEMDKRKMRSGNSADNRGAIADAFSSVAGSELIFLEDSPDYCLKNISLGLQGTEGRECLQSGKNLSQWERRSCKRLCTDCGLRVEEKKTEIISSCNCKFHWCCTVKCEQCKQVVIKHFCARRERDSNMLNTKRKNRGHRR
Consider B4, for which the binding result in experiment [10] and in experiment [11] was “binds” each time.
